Changes are numbered by the printed parent chain. In names and notes the source's numbering stands.
T1: TNFR1 (Homo sapiens, UniProt P19438)
T1 chain: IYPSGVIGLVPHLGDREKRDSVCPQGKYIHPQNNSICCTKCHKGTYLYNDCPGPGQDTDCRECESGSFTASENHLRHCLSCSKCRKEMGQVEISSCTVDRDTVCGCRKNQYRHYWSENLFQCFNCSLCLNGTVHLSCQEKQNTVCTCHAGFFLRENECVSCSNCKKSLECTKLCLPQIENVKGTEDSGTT

B1: M1F (designed binder)
chain: FTLQELLREEALRRAEAEAFRYALELLAEKFPEQKEYLLDLAEEIESQIRSLSGVDVEDVRKFLDKEWAWVKELLAEHPAELAEVEAARAARLAELRAEVEAKVAA
B2: P32M (designed binder)
chain: B1 chain with F1M, P32M
B3: R13Y (designed binder)
chain: B1 chain with F1M, R13Y
B4: R21S (designed binder)
chain: B1 chain with F1M, R21S
B5: R97M (designed binder)
chain: B1 chain with F1M, R97M
B6: L74T (designed binder)
chain: B1 chain with F1M, L74T
B7: E44S (designed binder)
chain: B1 chain with F1M, E44S
B8: A17W (designed binder)
chain: B1 chain with F1M, A17W
B9: E73I (designed binder)
chain: B1 chain with F1M, E73I
B10: K62S (designed binder)
chain: B1 chain with F1M, K62S
B11: L52D (designed binder)
chain: B1 chain with F1M, L52D
B12: P79C (designed binder)
chain: B1 chain with F1M, P79C
B13: M1E (designed binder)
chain: B1 chain with F1E
B14: R92Q (designed binder)
chain: B1 chain with F1M, R92Q
B15: L41V (designed binder)
chain: B1 chain with F1M, L41V
B16: Q34P (designed binder)
chain: B1 chain with F1M, Q34P
B17: E33W (designed binder)
chain: B1 chain with F1M, E33W
B18: V85M (designed binder)
chain: B1 chain with F1M, V85M
B19: A76F (designed binder)
chain: B1 chain with F1M, A76F
B20: E16G (designed binder)
chain: B1 chain with F1M, E16G
B21: A90V (designed binder)
chain: B1 chain with F1M, A90V
B22: E10A (designed binder)
chain: B1 chain with F1M, E10A
B23: V60S (designed binder)
chain: B1 chain with F1M, V60S
B24: D40G (designed binder)
chain: B1 chain with F1M, D40G
B25: E33Q (designed binder)
chain: B1 chain with F1M, E33Q
B26: E25M (designed binder)
chain: B1 chain with F1M, E25M
B27: E101S (designed binder)
chain: B1 chain with F1M, E101S
B28: A98T (designed binder)
chain: B1 chain with F1M, A98T
B29: E36M (designed binder)
chain: B1 chain with F1M, E36M
B30: E86C (designed binder)
chain: B1 chain with F1M, E86C
B31: A80E (designed binder)
chain: B1 chain with F1M, A80E
B32: E84Y (designed binder)
chain: B1 chain with F1M, E84Y
B33: L52G (designed binder)
chain: B1 chain with F1M, L52G
B34: E77M (designed binder)
chain: B1 chain with F1M, E77M
B35: R92I (designed binder)
chain: B1 chain with F1M, R92I
B36: Q48H (designed binder)
chain: B1 chain with F1M, Q48H
B37: K103L (designed binder)
chain: B1 chain with F1M, K103L
B38: A42H (designed binder)
chain: B1 chain with F1M, A42H
B39: E5F (designed binder)
chain: B1 chain with F1M, E5F
B40: Y37T (designed binder)
chain: B1 chain with F1M, Y37T
B41: K66C (designed binder)
chain: B1 chain with F1M, K66C
B42: V55M (designed binder)
chain: B1 chain with F1M, V55M
B43: V55S (designed binder)
chain: B1 chain with F1M, V55S

Molecular target: T1, TNFR1
Test: yeast display SC50

Row | Binder | apparent Kd (screen)
1 | B1 | 0.593 nM
2 | B2 | 1.4 nM
3 | B3 | 0.335 nM
4 | B4 | 0.539 nM
5 | B5 | 0.539 nM
6 | B6 | 2.48 nM
7 | B7 | 13.8 nM
8 | B8 | 0.539 nM
9 | B9 | 0.718 nM
10 | B10 | 0.539 nM
11 | B11 | 24.4 nM
12 | B12 | 0.718 nM
13 | B13 | 0.593 nM
14 | B14 | 0.304 nM
15 | B15 | 0.869 nM
16 | B16 | 0.49 nM
17 | B17 | 0.593 nM
18 | B18 | 0.49 nM
19 | B19 | 0.446 nM
20 | B20 | 0.593 nM
21 | B21 | 0.593 nM
22 | B22 | 5.31 nM

Row | Binder | apparent Kd (screen)
23 | B23 | 0.446 nM
24 | B24 | 1.05 nM
25 | B25 | 0.49 nM
26 | B26 | 0.368 nM
27 | B27 | 0.956 nM
28 | B28 | 0.539 nM
29 | B29 | 0.49 nM
30 | B30 | 0.653 nM
31 | B31 | 0.49 nM
32 | B32 | 0.718 nM
33 | B33 | 1.27 nM
34 | B34 | 0.593 nM
35 | B35 | 0.49 nM
36 | B36 | 0.653 nM
37 | B37 | 1.86 nM
38 | B38 | 3 nM
39 | B39 | 0.653 nM
40 | B40 | 10.4 nM
41 | B41 | 1.4 nM
42 | B42 | 2.73 nM
43 | B43 | 1.86 nM
